Data: patent US20250218531A1 (ABSCI, published 2025)
Numbering of substitutions follows the chain as printed. Values joined by “and” are separate entries in the source; they are usually repeats but may differ in a detail not shown here. Equal entries are not always repeated.

B1: Trastuzumab HCDR3 variant ARYGGYGGYYFDY (Fab, V domains shown)
VH: EVQLVESGGGLVQPGGSLRLSCAASGFNIKDTYIHWVRQAPGKGLEWVARIYPTNGYTRYADSVKGRFTISADTSKNTAYLQMNSLRAEDTAVYYCARYGGYGGYYFDYWGQGTLVTVSS
VL: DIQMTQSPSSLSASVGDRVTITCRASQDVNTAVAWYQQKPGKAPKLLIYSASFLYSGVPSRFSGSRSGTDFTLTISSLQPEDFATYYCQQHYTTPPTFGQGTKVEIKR
B2: Trastuzumab HCDR3 variant ARWLGSGYYWFDY (Fab, V domains shown)
VH: B1 VH with Y99W, G100L, Y102S, G104Y, Y106W
VL: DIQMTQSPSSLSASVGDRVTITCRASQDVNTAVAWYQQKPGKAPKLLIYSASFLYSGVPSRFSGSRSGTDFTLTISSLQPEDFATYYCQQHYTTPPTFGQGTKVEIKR
B3: Trastuzumab HCDR3 variant ANDIYIQGYDLNR (Fab, V domains shown)
VH: B1 VH with R98N, Y99D, G100I, G101Y, Y102I, G103Q, Y106D, F107L, D108N, Y109R
VL: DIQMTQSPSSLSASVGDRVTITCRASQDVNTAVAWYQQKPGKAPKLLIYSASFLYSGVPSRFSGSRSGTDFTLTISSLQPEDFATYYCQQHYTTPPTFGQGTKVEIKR
B4: Trastuzumab HCDR3 variant ARWGYSGWYVMDY (Fab, V domains shown)
VH: B1 VH with Y99W, G101Y, Y102S, G104W, Y106V, F107M
VL: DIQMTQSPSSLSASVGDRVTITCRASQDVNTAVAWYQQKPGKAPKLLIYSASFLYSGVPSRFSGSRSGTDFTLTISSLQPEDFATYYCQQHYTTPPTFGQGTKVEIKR
B5: Trastuzumab HCDR3 variant ARWGYGYSYYFDV (Fab, V domains shown)
VH: B1 VH with Y99W, G101Y, Y102G, G103Y, G104S, Y109V
VL: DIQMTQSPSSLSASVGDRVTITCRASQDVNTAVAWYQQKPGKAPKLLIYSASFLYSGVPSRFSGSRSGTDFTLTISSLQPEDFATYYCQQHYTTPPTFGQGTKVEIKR
B6: Trastuzumab HCDR3 variant ARWGYYGNYYFDY (Fab, V domains shown)
VH: B1 VH with Y99W, G101Y, G104N
VL: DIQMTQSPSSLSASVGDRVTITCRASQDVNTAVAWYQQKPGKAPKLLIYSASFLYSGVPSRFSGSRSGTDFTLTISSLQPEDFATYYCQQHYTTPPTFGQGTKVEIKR
B7: Trastuzumab HCDR3 variant AKYINAYSYAFFD (Fab, V domains shown)
VH: B1 VH with R98K, G100I, G101N, Y102A, G103Y, G104S, Y106A, D108F, Y109D
VL: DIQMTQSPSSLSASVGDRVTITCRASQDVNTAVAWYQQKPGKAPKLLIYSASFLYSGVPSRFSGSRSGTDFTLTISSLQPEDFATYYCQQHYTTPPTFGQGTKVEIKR
B8: Trastuzumab HCDR3 variant ARWTERGFYSFDI (Fab, V domains shown)
VH: B1 VH with Y99W, G100T, G101E, Y102R, G104F, Y106S, Y109I
VL: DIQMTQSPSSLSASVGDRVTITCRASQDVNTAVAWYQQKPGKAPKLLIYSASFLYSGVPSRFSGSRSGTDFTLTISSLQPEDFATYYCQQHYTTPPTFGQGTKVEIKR
B9: Trastuzumab HCDR3 variant ARWYYGYYYYFDV (Fab, V domains shown)
VH: B1 VH with Y99W, G100Y, G101Y, Y102G, G103Y, G104Y, Y109V
VL: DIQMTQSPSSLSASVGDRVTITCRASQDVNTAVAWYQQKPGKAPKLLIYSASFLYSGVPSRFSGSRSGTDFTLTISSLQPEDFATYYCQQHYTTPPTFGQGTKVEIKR
B10: Trastuzumab HCDR3 variant ARNYYDLYYYFDY (Fab, V domains shown)
VH: B1 VH with Y99N, G100Y, G101Y, Y102D, G103L, G104Y
VL: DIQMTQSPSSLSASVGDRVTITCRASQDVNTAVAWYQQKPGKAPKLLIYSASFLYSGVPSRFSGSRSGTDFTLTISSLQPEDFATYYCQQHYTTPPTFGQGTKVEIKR
B11: Trastuzumab HCDR3 variant ARWGYDYYYAMDY (Fab, V domains shown)
VH: B1 VH with Y99W, G101Y, Y102D, G103Y, G104Y, Y106A, F107M
VL: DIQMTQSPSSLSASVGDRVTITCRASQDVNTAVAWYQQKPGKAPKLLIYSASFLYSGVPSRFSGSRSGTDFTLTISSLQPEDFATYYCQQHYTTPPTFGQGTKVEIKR
B12: Trastuzumab HCDR3 variant ARWLGEGYYNFDY (Fab, V domains shown)
VH: B1 VH with Y99W, G100L, Y102E, G104Y, Y106N
VL: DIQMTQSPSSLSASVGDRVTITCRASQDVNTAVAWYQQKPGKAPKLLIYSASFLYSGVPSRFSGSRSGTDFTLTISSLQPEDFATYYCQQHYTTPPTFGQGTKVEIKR
B13: Trastuzumab HCDR3 variant ARWLRALGYYMDY (Fab, V domains shown)
VH: B1 VH with Y99W, G100L, G101R, Y102A, G103L, F107M
VL: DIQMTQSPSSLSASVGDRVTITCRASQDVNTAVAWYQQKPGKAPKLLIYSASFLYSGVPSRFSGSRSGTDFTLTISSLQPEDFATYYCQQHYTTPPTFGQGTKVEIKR
B14: Trastuzumab HCDR3 variant ARWRGDGGYYFDY (Fab, V domains shown)
VH: B1 VH with Y99W, G100R, Y102D
VL: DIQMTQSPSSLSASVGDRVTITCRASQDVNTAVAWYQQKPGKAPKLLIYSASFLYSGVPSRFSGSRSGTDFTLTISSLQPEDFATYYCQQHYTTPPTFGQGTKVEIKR
B15: Trastuzumab HCDR3 variant ARWPFYGPYNYDY (Fab, V domains shown)
VH: B1 VH with Y99W, G100P, G101F, G104P, Y106N, F107Y
VL: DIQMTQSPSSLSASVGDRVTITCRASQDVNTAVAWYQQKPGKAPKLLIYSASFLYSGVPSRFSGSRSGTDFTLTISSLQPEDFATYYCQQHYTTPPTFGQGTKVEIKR
B16: Trastuzumab HCDR3 variant ARWWGGGAYYFDY (Fab, V domains shown)
VH: B1 VH with Y99W, G100W, Y102G, G104A
VL: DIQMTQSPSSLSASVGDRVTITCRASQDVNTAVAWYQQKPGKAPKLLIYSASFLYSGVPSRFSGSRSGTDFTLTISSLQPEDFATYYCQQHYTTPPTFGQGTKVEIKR
B17: Trastuzumab HCDR3 variant ARWPGYGSYYMDV (Fab, V domains shown)
VH: B1 VH with Y99W, G100P, G104S, F107M, Y109V
VL: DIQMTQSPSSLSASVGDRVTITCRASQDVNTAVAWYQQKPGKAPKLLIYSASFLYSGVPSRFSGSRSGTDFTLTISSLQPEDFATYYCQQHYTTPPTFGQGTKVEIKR
B18: Trastuzumab HCDR3 variant AKYGGVGYYAMDY (Fab, V domains shown)
VH: B1 VH with R98K, Y102V, G104Y, Y106A, F107M
VL: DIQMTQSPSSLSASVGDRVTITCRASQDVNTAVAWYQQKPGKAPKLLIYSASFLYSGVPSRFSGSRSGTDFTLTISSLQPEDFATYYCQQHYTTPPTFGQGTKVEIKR
B19: Trastuzumab HCDR3 variant ARHFGVASYSFDY (Fab, V domains shown)
VH: B1 VH with Y99H, G100F, Y102V, G103A, G104S, Y106S
VL: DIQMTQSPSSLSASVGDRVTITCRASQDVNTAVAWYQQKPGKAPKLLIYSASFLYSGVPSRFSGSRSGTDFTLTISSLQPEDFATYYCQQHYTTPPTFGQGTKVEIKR
B20: Trastuzumab HCDR3 variant ARWDSGGPYYFDS (Fab, V domains shown)
VH: B1 VH with Y99W, G100D, G101S, Y102G, G104P, Y109S
VL: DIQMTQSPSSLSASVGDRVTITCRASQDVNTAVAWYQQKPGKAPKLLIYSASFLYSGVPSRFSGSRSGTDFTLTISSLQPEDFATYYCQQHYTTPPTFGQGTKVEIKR
B21: Trastuzumab HCDR3 variant ARWGYGGYYYFDY (Fab, V domains shown)
VH: B1 VH with Y99W, G101Y, Y102G, G104Y
VL: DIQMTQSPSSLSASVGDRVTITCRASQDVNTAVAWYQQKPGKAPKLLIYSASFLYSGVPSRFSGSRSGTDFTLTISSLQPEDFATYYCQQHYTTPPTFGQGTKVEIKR
B22: Trastuzumab HCDR3 variant ARENDGSPGSFEY (Fab, V domains shown)
VH: B1 VH with Y99E, G100N, G101D, Y102G, G103S, G104P, Y105G, Y106S, D108E
VL: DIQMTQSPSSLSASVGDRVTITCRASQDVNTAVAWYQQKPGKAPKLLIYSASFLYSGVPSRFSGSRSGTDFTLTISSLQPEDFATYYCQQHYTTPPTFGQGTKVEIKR
B23: Trastuzumab HCDR3 variant AATYGGLGDMSSI (Fab, V domains shown)
VH: B1 VH with R98A, Y99T, G100Y, Y102G, G103L, Y105D, Y106M, F107S, D108S, Y109I
VL: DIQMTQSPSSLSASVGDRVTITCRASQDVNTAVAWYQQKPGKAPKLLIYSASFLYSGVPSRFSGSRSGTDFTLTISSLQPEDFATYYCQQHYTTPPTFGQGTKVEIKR
B24: Trastuzumab HCDR3 variant AKYGATGWYYFDY (Fab, V domains shown)
VH: B1 VH with R98K, G101A, Y102T, G104W
VL: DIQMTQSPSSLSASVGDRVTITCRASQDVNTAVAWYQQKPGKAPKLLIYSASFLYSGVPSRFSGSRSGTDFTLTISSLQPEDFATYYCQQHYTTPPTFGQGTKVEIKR
B25: Trastuzumab HCDR3 variant ARWGGPGYYAFVW (Fab, V domains shown)
VH: B1 VH with Y99W, Y102P, G104Y, Y106A, D108V, Y109W
VL: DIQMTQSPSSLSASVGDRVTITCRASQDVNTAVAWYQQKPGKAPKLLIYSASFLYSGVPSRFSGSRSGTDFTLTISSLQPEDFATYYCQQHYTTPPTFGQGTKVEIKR
B26: Trastuzumab HCDR3 variant ARWGEFGPYYFDY (Fab, V domains shown)
VH: B1 VH with Y99W, G101E, Y102F, G104P
VL: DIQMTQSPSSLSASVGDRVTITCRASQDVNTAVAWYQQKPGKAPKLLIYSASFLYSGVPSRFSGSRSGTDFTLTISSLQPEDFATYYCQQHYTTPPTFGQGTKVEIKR
B27: Trastuzumab HCDR3 variant ARWGYDYYYYFDV (Fab, V domains shown)
VH: B1 VH with Y99W, G101Y, Y102D, G103Y, G104Y, Y109V
VL: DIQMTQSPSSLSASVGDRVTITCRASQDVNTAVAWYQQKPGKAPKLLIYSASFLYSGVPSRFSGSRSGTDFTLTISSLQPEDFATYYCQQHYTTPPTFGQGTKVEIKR
B28: Trastuzumab HCDR3 variant ARWYGGGYYYMDY (Fab, V domains shown)
VH: B1 VH with Y99W, G100Y, Y102G, G104Y, F107M
VL: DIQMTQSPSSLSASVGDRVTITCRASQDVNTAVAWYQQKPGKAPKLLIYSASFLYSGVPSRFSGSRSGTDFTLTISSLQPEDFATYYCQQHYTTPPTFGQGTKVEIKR
B29: Trastuzumab HCDR3 variant ARWLAGYNYYFDV (Fab, V domains shown)
VH: B1 VH with Y99W, G100L, G101A, Y102G, G103Y, G104N, Y109V
VL: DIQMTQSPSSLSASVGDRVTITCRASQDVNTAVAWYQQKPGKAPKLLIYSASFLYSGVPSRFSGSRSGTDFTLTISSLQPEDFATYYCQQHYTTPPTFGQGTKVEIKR
B30: Trastuzumab HCDR3 variant ARWGGYGYYYMDV (Fab, V domains shown)
VH: B1 VH with Y99W, G104Y, F107M, Y109V
VL: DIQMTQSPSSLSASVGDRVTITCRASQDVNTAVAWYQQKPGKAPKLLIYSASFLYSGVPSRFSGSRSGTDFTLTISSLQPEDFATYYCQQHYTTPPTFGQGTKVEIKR
B31: Trastuzumab HCDR3 variant AKYLGQEAYAYFS (Fab, V domains shown)
VH: B1 VH with R98K, G100L, Y102Q, G103E, G104A, Y106A, F107Y, D108F, Y109S
VL: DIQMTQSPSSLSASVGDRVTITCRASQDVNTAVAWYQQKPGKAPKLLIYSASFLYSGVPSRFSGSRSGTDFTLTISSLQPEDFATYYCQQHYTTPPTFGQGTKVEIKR
B32: Trastuzumab HCDR3 variant AKYAYYGDFWGSV (Fab, V domains shown)
VH: B1 VH with R98K, G100A, G101Y, G104D, Y105F, Y106W, F107G, D108S, Y109V
VL: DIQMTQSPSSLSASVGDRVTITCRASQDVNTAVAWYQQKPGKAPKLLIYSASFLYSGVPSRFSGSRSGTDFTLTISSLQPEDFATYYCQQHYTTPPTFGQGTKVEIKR
B33: Trastuzumab HCDR3 variant ARWYGYGGYYFDY (Fab, V domains shown)
VH: B1 VH with Y99W, G100Y
VL: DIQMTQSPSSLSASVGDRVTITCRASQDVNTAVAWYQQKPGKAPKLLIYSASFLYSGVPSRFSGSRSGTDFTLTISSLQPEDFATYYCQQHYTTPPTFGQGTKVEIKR
B34: Trastuzumab HCDR3 variant AKFAYYGPYHFDP (Fab, V domains shown)
VH: B1 VH with R98K, Y99F, G100A, G101Y, G104P, Y106H, Y109P
VL: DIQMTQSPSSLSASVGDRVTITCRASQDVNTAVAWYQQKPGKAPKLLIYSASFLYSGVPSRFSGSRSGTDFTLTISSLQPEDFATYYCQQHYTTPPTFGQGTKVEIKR
B35: Trastuzumab HCDR3 variant ARWGSIGYYAFDH (Fab, V domains shown)
VH: B1 VH with Y99W, G101S, Y102I, G104Y, Y106A, Y109H
VL: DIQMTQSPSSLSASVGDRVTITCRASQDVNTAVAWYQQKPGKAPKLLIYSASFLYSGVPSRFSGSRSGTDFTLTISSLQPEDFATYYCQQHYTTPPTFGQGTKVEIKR
B36: Trastuzumab HCDR3 variant TRYGAPYFYFDY (Fab, V domains shown)
VH: EVQLVESGGGLVQPGGSLRLSCAASGFNIKDTYIHWVRQAPGKGLEWVARIYPTNGYTRYADSVKGRFTISADTSKNTAYLQMNSLRAEDTAVYYCTRYGAPYFYFDYWGQGTLVTVSS
VL: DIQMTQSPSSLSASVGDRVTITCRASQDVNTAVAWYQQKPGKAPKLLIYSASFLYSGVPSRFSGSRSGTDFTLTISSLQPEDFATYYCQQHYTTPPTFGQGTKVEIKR
B37: Trastuzumab HCDR3 variant VTYGTTYYHFGS (Fab, V domains shown)
VH: B36 VH with T97V, R98T, A101T, P102T, F104Y, Y105H, D107G, Y108S
VL: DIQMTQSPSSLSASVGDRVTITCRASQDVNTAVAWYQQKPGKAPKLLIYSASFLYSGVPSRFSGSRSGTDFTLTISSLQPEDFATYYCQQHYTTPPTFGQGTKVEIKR
B38: Trastuzumab HCDR3 variant TRYGYGYYYFDY (Fab, V domains shown)
VH: B36 VH with A101Y, P102G, F104Y
VL: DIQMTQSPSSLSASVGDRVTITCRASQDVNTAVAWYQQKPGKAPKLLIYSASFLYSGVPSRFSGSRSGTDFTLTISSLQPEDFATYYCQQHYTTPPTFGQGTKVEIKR
B39: Trastuzumab HCDR3 variant VRYGGDYYYFDY (Fab, V domains shown)
VH: B36 VH with T97V, A101G, P102D, F104Y
VL: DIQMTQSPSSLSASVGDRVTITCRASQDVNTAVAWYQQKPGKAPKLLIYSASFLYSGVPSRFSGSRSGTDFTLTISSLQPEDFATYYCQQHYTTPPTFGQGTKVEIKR
B40: Trastuzumab HCDR3 variant VRYGGGYYYFDV (Fab, V domains shown)
VH: B36 VH with T97V, A101G, P102G, F104Y, Y108V
VL: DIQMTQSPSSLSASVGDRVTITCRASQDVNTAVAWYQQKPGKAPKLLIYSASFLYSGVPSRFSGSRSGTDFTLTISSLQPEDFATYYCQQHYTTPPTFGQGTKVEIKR
B41: Trastuzumab HCDR3 variant VRWRSDFYYFDY (Fab, V domains shown)
VH: B36 VH with T97V, Y99W, G100R, A101S, P102D, Y103F, F104Y
VL: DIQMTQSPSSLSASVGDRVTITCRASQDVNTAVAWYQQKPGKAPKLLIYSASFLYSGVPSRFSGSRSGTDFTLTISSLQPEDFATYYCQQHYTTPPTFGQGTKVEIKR
B42: Trastuzumab HCDR3 variant VRYGYGYYYFDY (Fab, V domains shown)
VH: B36 VH with T97V, A101Y, P102G, F104Y
VL: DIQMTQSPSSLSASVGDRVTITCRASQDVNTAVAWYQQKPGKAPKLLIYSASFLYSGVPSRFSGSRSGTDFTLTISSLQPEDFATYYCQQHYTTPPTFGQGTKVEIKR
B43: Trastuzumab HCDR3 variant TRYGGGYYYFDY (Fab, V domains shown)
VH: B36 VH with A101G, P102G, F104Y
VL: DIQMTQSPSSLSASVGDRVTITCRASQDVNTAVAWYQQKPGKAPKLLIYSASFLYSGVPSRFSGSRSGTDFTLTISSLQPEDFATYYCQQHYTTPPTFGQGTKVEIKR
B44: Trastuzumab HCDR3 variant VRYGYDYYWFDY (Fab, V domains shown)
VH: B36 VH with T97V, A101Y, P102D, F104Y, Y105W
VL: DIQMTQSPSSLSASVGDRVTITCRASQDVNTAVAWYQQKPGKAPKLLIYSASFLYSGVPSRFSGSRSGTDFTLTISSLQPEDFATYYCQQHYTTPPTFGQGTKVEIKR
B45: Trastuzumab HCDR3 variant TRYGYGYYYMDY (Fab, V domains shown)
VH: B36 VH with A101Y, P102G, F104Y, F106M
VL: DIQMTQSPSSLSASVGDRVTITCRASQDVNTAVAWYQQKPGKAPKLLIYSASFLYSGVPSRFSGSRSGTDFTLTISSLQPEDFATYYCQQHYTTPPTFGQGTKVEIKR
B46: Trastuzumab HCDR3 variant VRWGGYYYYFDY (Fab, V domains shown)
VH: B36 VH with T97V, Y99W, A101G, P102Y, F104Y
VL: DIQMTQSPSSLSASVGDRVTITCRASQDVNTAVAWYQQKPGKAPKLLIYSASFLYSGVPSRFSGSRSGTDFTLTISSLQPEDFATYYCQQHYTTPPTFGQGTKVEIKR
B47: Trastuzumab HCDR3 variant VRYGYGYYAMDY (Fab, V domains shown)
VH: B36 VH with T97V, A101Y, P102G, F104Y, Y105A, F106M
VL: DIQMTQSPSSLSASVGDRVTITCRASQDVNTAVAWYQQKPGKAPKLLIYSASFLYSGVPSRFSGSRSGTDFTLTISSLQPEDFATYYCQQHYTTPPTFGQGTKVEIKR
B48: Trastuzumab HCDR3 variant TRYYYGLYYFDY (Fab, V domains shown)
VH: B36 VH with G100Y, A101Y, P102G, Y103L, F104Y
VL: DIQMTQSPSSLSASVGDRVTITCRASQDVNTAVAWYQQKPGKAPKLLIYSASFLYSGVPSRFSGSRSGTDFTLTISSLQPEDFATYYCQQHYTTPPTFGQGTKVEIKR
B49: Trastuzumab HCDR3 variant VRYGYGYYYMDY (Fab, V domains shown)
VH: B36 VH with T97V, A101Y, P102G, F104Y, F106M
VL: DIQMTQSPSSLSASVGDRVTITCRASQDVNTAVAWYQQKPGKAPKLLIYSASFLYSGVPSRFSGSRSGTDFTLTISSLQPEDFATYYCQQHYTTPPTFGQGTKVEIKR
B50: Trastuzumab HCDR3 variant VRYGGTYYYFDY (Fab, V domains shown)
VH: B36 VH with T97V, A101G, P102T, F104Y
VL: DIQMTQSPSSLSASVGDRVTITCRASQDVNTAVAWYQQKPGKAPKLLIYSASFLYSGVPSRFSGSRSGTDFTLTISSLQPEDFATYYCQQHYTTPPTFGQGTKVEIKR
B51: Trastuzumab HCDR3 variant TRYGSYYYYFDY (Fab, V domains shown)
VH: B36 VH with A101S, P102Y, F104Y
VL: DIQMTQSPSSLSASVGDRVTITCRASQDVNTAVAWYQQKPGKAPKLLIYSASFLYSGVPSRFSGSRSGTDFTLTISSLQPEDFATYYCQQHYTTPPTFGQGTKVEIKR

The binders below were run against T1, HER2 (human epidermal growth factor receptor 2) (human, UniProt P04626 23-629) (assay: SPR).
T1 construct: also called Antigen: HER2

Binder | Kd | log(KD (M))
B1 | 14 nM | -7.85
B2 | 10.9 nM | -7.96
B3 | 3.99 nM | -8.4
B4 | 6.93 nM | -8.16
B5 | 21.1 nM | -7.68
B6 | 13.4 nM | -7.87
B7 | 17 nM and 16.9 nM | -7.77
B8 | 9.28 nM | -8.03
B9 | 7.04 nM | -8.15
B10 | 8.41 nM | -8.08
B11 | 19.4 nM | -7.71
B12 | 3.42 nM | -8.47
B13 | 15.9 nM and 15.8 nM | -7.8
B14 | 13.1 nM | -7.88
B15 | 2.64 nM | -8.58
B16 | 14.9 nM | -7.83
B17 | 4.83 nM | -8.32
B18 | 25.2 nM | -7.6
B19 | 13.9 nM | -7.86
B20 | 15.4 nM | -7.81
B21 | 19.1 nM | -7.72
B22 | 23.1 nM | -7.64
B23 | 27 nM | -7.57
B24 | 14.1 nM | -7.85
B25 | 8.08 nM | -8.09
B26 | 9.24 nM | -8.03

Binder | Kd | log(KD (M))
B27 | 26.7 nM | -7.57
B28 | 11.8 nM | -7.93
B29 | 15.7 nM | -7.8
B30 | 8.78 nM | -8.06
B31 | 14.9 nM | -7.83
B32 | 17.5 nM | -7.76
B33 | 7.43 nM | -8.13
B34 | 10.1 nM | -7.99
B35 | 20.5 nM | -7.69
B36 | 18 nM | -7.75
B37 | 24.1 nM | -7.62
B38 | 2.73 nM | -8.56
B39 | 21.9 nM | -7.66
B40 | 3.96 nM | -8.4
B41 | 4.95 nM | -8.31
B42 | 2.77 nM | -8.56
B43 | 3.59 nM | -8.45
B44 | 10.4 nM | -7.98
B45 | 5.25 nM | -8.28
B46 | 6.35 nM | -8.2
B47 | 10.7 nM | -7.97
B48 | 3.02 nM | -8.52
B49 | 5.48 nM | -8.26
B50 | 15.4 nM | -7.81
B51 | 3.18 nM | -8.5
